From patent publication US20230303719, “HUMANIZED 3E10 ANTIBODIES, VARIANTS, AND ANTIGEN BINDING FRAGMENTS THEREOF” (YALE UNIVERSITY, published 2023)

Legend:
[1] = molecular target: humanized 3E10 V66 (CHO) (synthetic construct, UniProt P01857; SEQ:1-446,SEQ:1-218); experiment: BLI; 1:1 model; antibody on AHC2 sensor; ka 3.08E5, kdis 7.99E-4; conditions: tags: human Fc IgG; transiently expressed in CHO; chain copies: 2 heavy + 2 light (inferred); hairpin
[2] = molecular target: 3E10-D31N (chimeric, murine VH/VL); experiment: BLI; 1:1 model; antibody on AHC2 sensor; RNA 62.5-500 nM; conditions: tags: human Fc IgG; chain copies: 2 heavy + 2 light (inferred); hairpin
[3] = molecular target: 3E10-D31N IgG4 S228P/F234A/L235A (synthetic construct, UniProt P01861; SEQ:1-443,SEQ:1-218); experiment: as above; conditions: tags: human IgG4 Fc; chain copies: 2 heavy + 2 light (inferred); hairpin
[4] = molecular target: 3E10-D31N IgG4 S228P/F234A/L235A/H310Q (synthetic construct, UniProt P01861; SEQ:1-443,SEQ:1-218); experiment: as above; conditions: tags: human IgG4 Fc; chain copies: 2 heavy + 2 light (inferred); hairpin
[5] = molecular target: 3E10-D31N IgG4 S228P/F234A/L235A/T307Q/N434A (synthetic construct, UniProt P01861; SEQ:1-443,SEQ:1-218); experiment: as above; conditions: tags: human IgG4 Fc; chain copies: 2 heavy + 2 light (inferred); hairpin
[6] = molecular target: 3E10-D31N IgG4 S228P/F234A/L235A/M252Y/S254T/T256E (synthetic construct, UniProt P01861; SEQ:1-443,SEQ:1-218); experiment: as above; conditions: tags: human IgG4 Fc; chain copies: 2 heavy + 2 light (inferred); hairpin
[7] = molecular target: 3E10-D31N (chimeric, murine VH/VL); experiment: BLI; 1:1 model; antibody on AHC2 sensor; ka 2.29E5, kdis 4.76E-4; conditions: tags: human Fc IgG; chain copies: 2 heavy + 2 light (inferred); hairpin
[8] = molecular target: humanized 3E10 V66 (HEK293) (synthetic construct, UniProt P01857; SEQ:1-446,SEQ:1-218); experiment: BLI; 1:1 model; antibody on AHC2 sensor; ka 2.42E5, kdis 3.13E-4; conditions: tags: human Fc IgG; transiently expressed in HEK293; chain copies: 2 heavy + 2 light (inferred); hairpin
Sequence of humanized 3E10 V66 (HEK293) (P01857 other isoform, or with tags, fused parts or gaps, chain 1 of 2): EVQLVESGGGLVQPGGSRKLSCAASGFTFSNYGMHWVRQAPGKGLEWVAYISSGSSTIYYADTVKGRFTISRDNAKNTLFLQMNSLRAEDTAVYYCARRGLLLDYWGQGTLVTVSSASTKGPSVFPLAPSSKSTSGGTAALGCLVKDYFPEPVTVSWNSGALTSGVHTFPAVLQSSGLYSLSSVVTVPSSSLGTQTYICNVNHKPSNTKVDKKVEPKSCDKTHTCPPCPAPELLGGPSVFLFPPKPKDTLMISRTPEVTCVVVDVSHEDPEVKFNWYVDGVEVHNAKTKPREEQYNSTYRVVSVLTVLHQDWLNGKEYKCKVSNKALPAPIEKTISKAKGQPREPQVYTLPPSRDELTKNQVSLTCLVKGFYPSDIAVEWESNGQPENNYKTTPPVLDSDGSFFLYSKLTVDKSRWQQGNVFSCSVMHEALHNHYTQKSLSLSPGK
Sequence of humanized 3E10 V66 (HEK293) (chain, as listed by the source, chain 2 of 2): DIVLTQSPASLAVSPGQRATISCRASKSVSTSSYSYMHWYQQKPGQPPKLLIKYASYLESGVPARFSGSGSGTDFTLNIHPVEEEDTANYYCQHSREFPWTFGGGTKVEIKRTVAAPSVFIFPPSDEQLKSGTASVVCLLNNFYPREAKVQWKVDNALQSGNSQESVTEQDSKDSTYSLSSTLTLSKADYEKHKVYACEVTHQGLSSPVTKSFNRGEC

Sequence of humanized 3E10 V66 (CHO) (P01857 other isoform, or with tags, fused parts or gaps, chain 1 of 2): as the sequence (P01857 other isoform, or with tags, fused parts or gaps, chain 1 of 2) above
Sequence of humanized 3E10 V66 (CHO) (chain, as listed by the source, chain 2 of 2): as the sequence (chain, as listed by the source, chain 2 of 2) above

B1: 3p-hpRNA RIG-I agonist (89 nt) (ssRNA)
RNA: GGAGCAAAAGCAGGGUGACAAAGACAUAAUGGAUCCAAACACUGUGUCAAGCUUUCAGGUAGAUUGCUUUCUUUGGCAUGUCCGCAAAC
modifications: 5'-triphosphate
- Kd [1]: 2.6 nM
- Kd [2]: 10.5 nM
- Kd [3]: 3.33 nM
- Kd [4]: 6.58 nM
- Kd [5]: 12.7 nM
- Kd [6]: 5 nM
- Kd [7]: 2.08 nM
- Kd [8]: 1.3 nM
